Test results published in US20090317391A1 (Novartis, published 2009).

Target: T1, SEMA4D-V5 (expressed from pDESTSEMA4D-V5) (UniProt Q92854 22-862, limits assumed)
T1 construct: Control membrane protein co-transfected in 293T cells
T1 sequence (looked up): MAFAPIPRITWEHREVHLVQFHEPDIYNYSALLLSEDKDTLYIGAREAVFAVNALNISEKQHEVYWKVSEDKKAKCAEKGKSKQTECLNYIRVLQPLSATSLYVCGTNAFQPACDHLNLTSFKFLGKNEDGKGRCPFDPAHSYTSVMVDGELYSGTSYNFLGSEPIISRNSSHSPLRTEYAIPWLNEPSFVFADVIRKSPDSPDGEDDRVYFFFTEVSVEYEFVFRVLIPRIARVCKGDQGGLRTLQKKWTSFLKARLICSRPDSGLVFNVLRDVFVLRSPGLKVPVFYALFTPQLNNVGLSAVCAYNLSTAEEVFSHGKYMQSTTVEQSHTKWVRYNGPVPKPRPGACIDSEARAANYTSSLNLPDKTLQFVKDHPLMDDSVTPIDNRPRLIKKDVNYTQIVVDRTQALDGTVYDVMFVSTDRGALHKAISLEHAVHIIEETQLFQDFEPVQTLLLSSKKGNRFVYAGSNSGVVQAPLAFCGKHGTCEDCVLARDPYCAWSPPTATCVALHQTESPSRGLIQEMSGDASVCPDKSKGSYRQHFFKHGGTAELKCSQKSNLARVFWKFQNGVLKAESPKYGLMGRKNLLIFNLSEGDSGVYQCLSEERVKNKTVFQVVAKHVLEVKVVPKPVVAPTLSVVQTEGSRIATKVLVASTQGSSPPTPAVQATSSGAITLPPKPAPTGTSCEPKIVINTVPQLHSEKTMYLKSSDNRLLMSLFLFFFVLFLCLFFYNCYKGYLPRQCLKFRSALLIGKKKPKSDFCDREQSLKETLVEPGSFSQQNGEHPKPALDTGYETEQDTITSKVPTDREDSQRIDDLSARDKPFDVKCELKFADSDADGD
Assay: co-immunoprecipitation (anti-HA or anti-V5) and western blot from lysates of co-transfected 293T cells
Experimental: Cells were harvested 72-hours later by scraping in 1 ml PBS. The pellets were lyzed on ice for 60 mins. in 500 ul lysis buffer: 50 mM Tris-HCl; pH7.5, 150 mM NaCl, 1 mM EDTA, 1% NP40, 0.25% Deoxycholate, 50 mMNaF, 20 mM Na3OV4 and protease inhibitors. 1 mM PMSF (0.3M stock solution in DMSO) was added to the lysis buffer before use. DNA was sheared with a needle. Lysates were then spun down for 10 mins. at 14,000 rpm. 200 ul cell lysates were incubated, overnight at 4° C. with gentle rocking, with lug of either rabbit polyclonal antibody to HA or V5 epitope tag (abcam; ab9110-100 and ab9116-100, respectively).
The next morning, a suspension protein A/G (50:50) agarose beads was washed twice in PBS then in lysis buffer. The beads (50% slurry) were incubated on ice in the lysis buffer for one hour. 30 ul of the proteinA/G suspension were added to the lysates and the mixture incubated for 4 hours at 4° C. with gentle rocking. Beads were then washed 3 times with 1 ml lysis buffer. Beads were resuspended in 30 μl sample buffer.
After protein transfer to membrane blots. Membranes were blocked over-night in PBST-5% Milk. The next day blots of the immunoprecipitation with V5 antibody were incubated with HA hybridoma supernatant (dilution 1:1000) for 1 hour whereas blots of the immunoprecipitation with HA antibody were incubated with V5-HRP (dilution 1:5000)

- binding result: no binding
B1: HA-tm-PTPε (expressed from pDisplayHA tm-PTPε-FL#9) (receptor, not shown: small tags and cut ends)
chain: LRGNETTADSNETTTTSGPPDPGASQPLLAWLLLPLLLLLLVLLLAAYFFRFRKQRKAVVSTSDKKMPNGILEEQEQQRVMLLSRSPSGPKKYFPIPVEHLEEEIRIRSADDCKQFREEFNSLPSGHIQGTFELANKEENREKNRYPNILPNDHSRVILSQLDGIPCSDYINASYIDGYKEKNKFIAAQGPKQETVNDFWRMVWEQKSATIVMLTNLKERKEEKCHQYWPDQGCWTYGNIRVCVEDCVVLVDYTIRKFCIQPQLPDGCKAPRLVSQLHFTSWPDFGVPFTPIGMLKFLKKVKTLNPVHAGPIVVHCSAGVGRTGTFIVIDAMMAMMHAEQKVDVFEFVSRIRNQRPQMVQTDMQYTFIYQALLEYYLYGDTELDVSSLEKHLQTMHGTTTHFDKIGLEEEFRKLTNVRIMKENMRTGNLPANMKKARVIQIIPYDFNRVILSMKRGQEYTDYINASFIDGYRQKDYFIATQGPLAHTVEDFWRMIWEWKSHTIVMLTEVQEREQDKCYQYWPTEGSVTHGEITIEIKNDTLSEAISIRDFLVTLNQPQARQEEQVRVVRQFHFHGWPEIGIPAEGKGMIDLIAAVQKQQQQTGNHPITVHCSAGAGRTGTFIALSNILERVKAEGLLDVFQAVKSLRLQRPHMVQTLEQYEFCYKVVQDFIDIFSDYANFK
notes: Transiently expressed in 293T cells and tested from cell lysates; The tag is placed N-terminal on the strength of the name
